Source: patent US6034212
Ends that are not written are not given here. * marks the point of attachment. Biotin = O=C1N[C@H]2[C@H](CS[C@H]2CCCCC(=O)*)N1

Tests used:
[1] = biological target: GST-SH3-Yes fusion protein (Gallus gallus (Chicken)) (UniProt P09324); experiment: competition of labeled GST-YES-SH3 binding to blotted TrpE-YAP65
[2] = biological target: GST-WW-YAP fusion protein (WW domain of human YAP in pGEX-2TK) (human); experiment: competition of a fixed concentration of labelled GST-WW-YAP on blotted GST-…, densitometry (data not shown)

Binder	concentration required to partially compete for binding [1] [µM]	IC50 [2] [nM]
ISQSAPVKQPPPLAPQSPQGGV [PLAP peptide]	200	–
Biotin-GTPPPPYTVG [unlabelled decapeptide biotin-… containing the PY motif]	–	750
